Legend:
[1] = biological target: Fc-gp120 ΔV3 (HIV-1 JR-CSF); assay: flow cytometry on cells
[2] = biological target: Fc-gp120 ΔV1V2V3 (HIV-1 JR-CSF); assay: flow cytometry on cells
[3] = biological target: Fc-gp120 WT (human IgG1 Fc fused N-terminal to full-length wild-type gp120 of HIV-1 JR-CSF) (HIV-1 JR-CSF); assay: flow cytometry on cells
[4] = biological target: Fc-gp120 ΔV1V2 (HIV-1 JR-CSF); assay: flow cytometry on cells
[5] = biological target: Fc-DC-SIGN (entire ectodomain of DC-SIGN fused in-frame with the Fc region of IgG1) (UniProt Q9NNX6); assay: ELISA
Sequence of UniProt Q9NNX6 (Q9NNX6 59-404): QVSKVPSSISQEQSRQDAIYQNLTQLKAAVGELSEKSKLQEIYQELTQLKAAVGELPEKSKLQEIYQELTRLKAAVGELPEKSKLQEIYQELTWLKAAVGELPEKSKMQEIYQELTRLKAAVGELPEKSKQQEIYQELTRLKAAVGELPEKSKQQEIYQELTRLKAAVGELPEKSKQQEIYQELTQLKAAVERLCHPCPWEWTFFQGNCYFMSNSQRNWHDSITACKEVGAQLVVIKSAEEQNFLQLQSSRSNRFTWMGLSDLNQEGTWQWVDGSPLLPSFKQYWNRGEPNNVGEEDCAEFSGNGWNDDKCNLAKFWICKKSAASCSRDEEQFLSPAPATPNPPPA

| Substance | % inhibition of Fc-gp120 binding to CEM cells at 10 μg/ml sCD4 [1] [%] | % inhibition of Fc-gp120 binding to CEM cells at 10 μg/ml sCD4 [2] [%] | % inhibition of Fc-gp120 binding to CEM cells at 10 μg/ml sCD4 [3] [%] | % inhibition of Fc-gp120 binding to CEM cells at 10 μg/ml sCD4 [4] [%] | IC50 [5] [nM] |
| --- | --- | --- | --- | --- | --- |
| 4-domain recombinant soluble CD4 (domain or fragment) | 100 | 50 | 100 | 100 |  |
| biotinylated Fc-gp120 (Fc fusion) |  |  |  |  | 0.017 |
